Data published in patent US20200109211A1 (ELSALYS BIOTECH, published 2020).
Substitutions are numbered along the chain they refer to. Names and notes keep the numbering of the source.

T1: recombinant human CD160 protein, soluble form, with a C-terminal tag of 6 histidine residues (R&D SYSTEMS) (human, UniProt O95971 27-159, limits assumed, biotinylated with EZ-Link sulfo-NHS-LC-biotin for BLI and ELISA; not biotinylated when immobilised on the CM5 chip for SPR)
T1 construct: domain: soluble form; Bought protein; also called hCD160-his; biotinylated CD160
T1 sequence: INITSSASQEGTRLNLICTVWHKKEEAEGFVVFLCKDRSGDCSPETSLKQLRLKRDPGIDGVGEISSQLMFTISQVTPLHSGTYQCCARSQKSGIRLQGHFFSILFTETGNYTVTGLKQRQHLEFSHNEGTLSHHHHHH

T2: human CD160 (CD160 GPI isoform) on cells (human, UniProt O95971 25-159, GPI anchor)
T2 construct: whole, on cells; Used for all cells said to carry human CD160: transfected CHO-S and E300 cells and cells that carry it naturally (YT2C2, blood NK, CD8+ T, T CD4, CLL cells); also called hCD160; CHO-S-hCD160 (clone 2G10)
T2 sequence (looked up): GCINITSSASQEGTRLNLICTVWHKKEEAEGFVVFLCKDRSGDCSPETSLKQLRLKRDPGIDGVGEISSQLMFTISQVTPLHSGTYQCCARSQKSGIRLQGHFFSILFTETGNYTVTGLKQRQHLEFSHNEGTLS

B1: D12 IgG4 S228P/R409K/H310A/H435Q (antibody)
heavy: QVQLVQSGAEVKKPGASVKVSCKASGYTFSDFWMQWIRQAPGQGLEWIGAIYPGDDDARVTQKFRGRATLTADKSTSTAYMELSSLRSEDTAVYYCARRGIAAVVGGFDYWGQGTTLTVSSASTKGPSVFPLAPCSRSTSESTAALGCLVKDYFPEPVTVSWNSGALTSGVHTFPAVLQSSGLYSLSSVVTVPSSSLGTKTYTCNVDHKPSNTKVDKRVESKYGPPCPPCPAPEFLGGPSVFLFPPKPKDTLMISRTPEVTCVVVDVSQEDPEVQFNWYVDGVEVHNAKTKPREEQFNSTYRVVSVLTVLAQDWLNGKEYKCKVSNKGLPSSIEKTISKAKGQPREPQVYTLPPSQEEMTKNQVSLTCLVKGFYPSDIAVEWESNGQPENNYKTTPPVLDSDGSFFLYSKLTVDKSRWQEGNVFSCSVMHEALHNQYTQKSLSLSLG
light: EIVLTQSPATLSLSPGERATLSCRASQSISNHLHWYQQKPGQAPRLLIKYASQSISGIPARFSGSGSGTDFTLTISSLEPEDFAVYFCQQSNSWPLTFGGGTKVEIKRTVAAPSVFIFPPSDEQLKSGTASVVCLLNNFYPREAKVQWKVDNALQSGNSQESVTEQDSKDSTYSLSSTLTLSKADYEKHKVYACEVTHQGLSSPVTKSFNRGEC
notes: also called ELB01104; H7 IgG4 D12 S228P/R409K/H310A/H435Q
B2: FJ1516MP02A12 (H7 VH family 3) Fab clone (Fab, V domains shown)
VH: QVQLVQSGAEVKKPGASVKVSCKASGYTFTDYWMQWIRQAPGQGLEWIGAIYPGDDDAQFTQKFRGRATLTADKSTSTAYMELSSLRSEDTAVYYCARRGIAAVVGGFDYWGQGTTLTVSS
VL: EIVLTQSPATLSLSPGERATLSCRASQSISNHLHWYQQKPGQAPRLLIKYASQSISGIPARFSGSGSGTDFTLTISSLEPEDFAVYFCQQSNSWPLTFGGGTKVEIK
notes: Tested as Fab on phage and as soluble Fab in periplasmic extract
B3: FJ1516MP02G05 (H7 VH family 4) Fab clone (Fab, V domains shown)
VH: B2 VH with T30A, F60Y
VL: B2 VL
notes: as for B2
B4: FJ1516MP02D09 (H7 VH family 2) Fab clone (Fab, V domains shown)
VH: B2 VH with T30S, D31E, Y32S, D57E, Q59R, F60V
VL: B2 VL
notes: as for B2

Columns and labels:
[1] = biological target: T1, recombinant human CD160 protein, …; assay: BLI
[2] = biological target: T1, recombinant human CD160 protein, …; assay: BLI (repeats Table 8)
[3] = biological target: T1, recombinant human CD160 protein, …; assay: BLI, biotinylated CD160 at 10 nM on streptavidin sensor, antibody 3.13-100 nM
[4] = biological target: T2, human CD160 (CD160 GPI isoform) on cells; assay: flow cytometry, percentage of labelled YT2C2 NK cells (2x10^5 cells), antibody 0.39 to 50 nM [panel C]
Description: (§1) The binding capacity of the anti-CD160 H7 antibody and of the H7 D12 variant in the IgG4, Fab and Fab-linker Fab format was evaluated during the labelling of surface CD160 expressed naturally on a clone of NK cell line (YT2C2), by measuring the percentage of cell labelled=percentage of binding (see FIG. 1C). For this, 2×10⁺⁵ YT2C2 cells were labelled with increasing concentration of antibodies (from 50 nM to 0.39 nM) and also with the appropriate control isotype. […] In FIG. 1C, IgG4 variants ELB01103 and ELB01104 bind more efficiently to the YT2C2 cells than the H7 IgG4 ELB01101 (which results in a EC₅₀ increased by a factor of 10 compared with H7 IgG4). This is also true for the Fab-linker-Fab format ELB01132. By contrast Fab format ELB01122 bind less efficiently to the YT2C2 cells than the H7 IgG4 ELB01101 (which results in a EC₅₀ decreased by a factor of 2 compared with H7 IgG4). This is certainly due to the monovalency of the Fab format.

[5] = biological target: T2, human CD160 (CD160 GPI isoform) on cells; assay: flow cytometry on CHO-hCD160 transfectants
Description: The binding capacity of the anti-CD160 H7 antibodies and of the variants (D12 and A09) thereof in the IgG4 and IgG1 format and in the IgG1 E345K format was evaluated during the labelling of surface CD160 expressed in a recombinant line CHO-S-hCD160 (clone 2G10) in comparison with non-transfected CHO-S cells, by measuring the median fluorescence index (MFI) (see FIG. 1). For this, 5×10⁺⁵ 2G10 (CHO-S-CD160) and non-transfected CHO-S cells were labelled with 2 μg of each of these antibodies and also with the appropriate control isotypes. In FIG. 1, all the anti-CD160 tested (regardless of the isotype or the IgG format or the variant) specifically recognize human CD160 expressed recombinantly by the CHO-S cells.
In FIG. 1B, the IgG4 variants bind more efficiently to the CHO-hCD160 transfectants than H7 (which results in a median fluorescence increased by a factor of 2 compared with H7 IgG4 ELB01101 or with H7 IgG4 H310A-H435Q ELB01102), this being even in the presence of the H310A-H435Q mutations.

[6] = biological target: T1, recombinant human CD160 protein, …; assay: SPR (Biacore), design close to Example 2
[7] = biological target: T2, human CD160 (CD160 GPI isoform) on cells; assay: flow cytometry, percentage of labelled YT2C2 NK cells, antibody 0.39-50 nM; the text means better binding
Description: as §1

[8] = biological target: T1, recombinant human CD160 protein, …; assay: SPR (Biacore 3000), hCD160 on CM5 chip, periplasmic extract with soluble Fab diluted 1:5
Description: The binding capacity of the H7 variants was also tested by surface plasmon resonance (SPR). For this, a Biacore 3000 (GE Healthcare) was used. […] The integrity of the immobilized human CD160 was confirmed using the anti-huCD160 H7 IgG1 antibody. For the kinetic measurements, concentrations in cascade of human ECD160 with two-fold dilutions (0.15 μM-10 μM) were injected, twice, in PBS, with a Biacore P20 buffer at 25° C. and a flow rate of 30 μl/min.
The regeneration conditions were tested and 10 pi of 10 mM NaOH/1M NaCl were injected for the regeneration between the sample injections. To analyse the binding of the clones to human CD160, the periplasmic extracts containing the soluble Fabs were diluted to 1:5 in BIACORE P20 buffer (10 mM Hepes, 150 mM NaCl, 3 mM EDTA, 0.005% Tween-20) with a flow rate of 30 μl/min for 120 seconds for the association; the dissociation was measured for 300 seconds.
The maximum absolute response of the binding of each of these variants (expressed as measurement of arbitrary response units at time=120 seconds post-injection of the antibody) was evaluated on a surface coated with CD160 protein.

[9] = biological target: T1, recombinant human CD160 protein, …; assay: phage ELISA, Fab on phage
From the text: (§2) Thus, phage clones were generated and also made it possible to produce periplasmic extracts of bacteria, containing unpurified soluble Fabs. The individual clones were selected for their binding capacity to the human CD160 protein, by ELISA, and to cells expressing human CD160 by FACS, this being i) either in the form of gene III-Fab fusion proteins expressed at the surface of the filamentous phage or ii) in the form of periplasmic extracts containing fragments of unpurified soluble Fabs. The individual clones (in the form of periplasmic extracts containing fragments of soluble Fabs) were also classified according to their kinetic dissociation constant (kdis).
(§3) From a practical point of view, the binding of the phage to human CD160 was detected using an anti-M13 HRP conjugated antibody. The binding of the phage to the cells expressing CD160 was detected using a mouse anti-M13-biotin antibody followed by Streptavidin-PE.

[10] = biological target: T1, recombinant human CD160 protein, …; assay: ELISA, soluble Fab in periplasmic extract
From the text: (§4) The binding of the clones selected (from the rounds of selection on CD160 protein and on CHO-CD160 cells) as soluble Fab was also looked at by ELISA and FACS using periplasmic extracts (P.E). The binding of the soluble Fabs to the human CD160 protein, using ELISA, was detected using an anti-c-myc antibody followed by an anti-mouse HRP conjugated antibody. The binding of the soluble Fabs to the CHO cells overexpressing human CD160 was detected using an anti-c-myc antibody followed by a goat anti-mouse APC conjugated antibody. The results of the ELISA and FACS experiments using Fabs expressed at the surface of the phages or in periplasmic extracts confirmed the binding capacity of each of the affinity-matured H7 clones to human CD160.

[11] = biological target: T2, human CD160 (CD160 GPI isoform) on cells; assay: FACS on CHO cells overexpressing hCD160, soluble Fab in periplasmic extract
From the text: as §4

[12] = biological target: T2, human CD160 (CD160 GPI isoform) on cells; assay: phage FACS on CHO cells expressing hCD160
From the text: as §2, §3

Binder | Biacore R.U ratio (variant/FaWT 2E07) [8] | Biacore R.U ratio (variant/H7 WT) [8] | Binding response, RU arbitrary unit (at t = 120 s post-mab injection) [8] | Phage ELISA O.D450 nm on biotinylated CD160 [9] | P.E ELISA O.D450 nm on biotinylated CD160 [10] | P.E FACS (% binding) [11] | Phage FACS (% binding) [12] | other results
B1 |  |  |  |  |  |  |  | Gain in KD/respective IgG [1]: 2 fold; Kd [2]: 1.49 nM; koff [2]: 0.000744 s⁻¹; kon [2]: 499000 M⁻¹ s⁻¹; Kd [3]: 1.49 nM; koff [3]: 0.000744 s⁻¹; kon [3]: 499000 M⁻¹ s⁻¹; EC50 (read off the curve) [4]: ~3 nM; median fluorescence, factor against H7 IgG4 H310A-H435Q ELB01102 [5]: 2 fold; Gain in KD/respective IgG [6]: 2.9 fold; Kd [6]: 5 nM; koff [6]: 0.00123 s⁻¹; kon [6]: 244000 M⁻¹ s⁻¹; EC50, factor against H7 IgG4 (ELB01101) [7]: 10 fold
B2 | 1.5 fold | 3.3 fold | 20.1 RU | 6 OD450 | 0.148 OD450 | 1.23% | 92.1% | 
B3 | 1.2 fold | 2.6 fold | 16 RU | 3.46 OD450 | 0.141 OD450 | 1.06% | 86.9% | 
B4 | 1.5 fold | 3.2 fold | 19.3 RU | 3.63 OD450 | 0.174 OD450 | 1.08% | 76.4% | 
